Data reported in patent publication US20190248864A1.

B1: mouse IDOL (inducible degrader of the LDLR) (enzyme, UniProt Q8BM54 1-445, looked up)
chain: MLCYVTRPDAVLMEVEVEAKANGEDCLNQVCRRLGIIEVDYFGLQFTGSKGESLWLNLRNRISQQMDGLAPYRLKLRVKFFVEPHLILQEQTRHIFFLHIKESLLAGHLQCSPEQAVELSALLAQTKFGDYNQNTAQYSYEDLCEKELSSSTLNSIVAKHKELEGISQASAEYQVLQIVSAMENYGIEWHAVRDSEGQKLLIGVGPEGISICKEDFSPINRIAYPVVQMATQSGKNVYLTVTKESGNSIVLLFKMISTRAASGLYRAITETHAFYRCDTVTSAVMMQYSRDLKGHLASLFLNENINLGKKYVFDIKRTSKEVYDHARRALYNAGVVDLVSRSDQSPPSSPLKSSDSSMSCSSCEGLSCQQTRVLQEKLRKLKEAMLCMACCEEEINSTFCPCGHTVCCESCAAQLQSCPVCRSRVEHVQHVYLPTHTSLLNLTVI

Legend:
[1] = target: each construct (cells transfected with either wild type or the PCSK9 binding-deficient LDLR mRNAs); test: flow cytometry, half-maximal cell association of BODIPY-LDL on transfected HEK293 cells
[2] = target: wild type mouse LDLR (mouse) (UniProt P35951); test: cell-based or functional assay
[3] = target: mouse LDLR mutant 1 (LDLR_N317A, K832R, C841A) (mouse) (UniProt P35951); test: cell-based or functional assay

| Molecule | EC50 [1] | Average LDLR MCF, HeLa cells, co-transfected with IDOL (with Luciferase: 5773) [2] | Average LDLR MCF, Hepa1-6, co-transfected with IDOL (with Luciferase: 5272) [2] | LDLR expression as percent of the baseline, HeLa cells (% of the baseline) [2] | LDLR expression as percent of the baseline, Hepa1-6 (% of the baseline) [2] | LDLR expression as percent of the baseline, Hepa1-6 cells given no LDLR mRNA (luciferase row of Table 15) (% of the baseline) [2] | Average LDLR MCF, HeLa cells, co-transfected with IDOL (with Luciferase: 8369) [3] | Average LDLR MCF, Hepa1-6, co-transfected with IDOL (with Luciferase: 14080) [3] | LDLR expression as percent of the baseline, HeLa cells (% of the baseline) [3] | LDLR expression as percent of the baseline, Hepa1-6 (% of the baseline) [3] |
| --- | --- | --- | --- | --- | --- | --- | --- | --- | --- | --- |
| BODIPY-labeled LDL (low density lipoprotein) (from UniProt P04114 28-4563) (ligand) | 0.6 to 0.7 ng/mL |  |  |  |  |  |  |  |  |  |
| B1 |  | 2920 MCF | 881 MCF | 50.5 | 16.7 | 62.3 | 7050 MCF | 8860 MCF | 84.2 | 62.9 |
